# From patent US20170290886
# Tested on: Recombinant GST-tagged MeCP2 protein (Prospec)
substance,measurement,value
His-tagged PIAS1 protein,MeCP2 SUMOylation (in vitro SUMOylation assay with purified proteins),"MeCP2 SUMOylation occurred when E1, E2, PIAS1 (the protein inhibitor of activated STAT1) and MeCP2 proteins were added"
